Laboratory results published in US20170037103A1 (University of California, published 2017).
Bridges are numbered along the chain shown (N, C = ends). Where no end group is shown, it is not given here. [ ]: non-standard residue; d: D form. The star is where a group is joined. PalS‑X = 3,5-bis(methyl-S-cysteinyl)-1-(methyl-S-palmityl)-benzene joining the two Cys; Ida^NHPal = iminodiacetic acid mono-N-palmityl amide, CCCCCCCCCCCCCCCCNC(=O)CNCC(=O)*; dPEG12 = 40-amino-4,7,10,13,16,19,22,25,28,31,34,37-dodecaoxotetradecanoic acid; Oic = O=C(O)[C@@H]1C[C@@H]2CCCC[C@@H]2N1; Palmitoyl = CCCCCCCCCCCCCCCC(=O)*; Tic = O=C(O)[C@@H]1Cc2ccccc2CN1; Aib = CC(C)(N)C(=O)O; Ahx = NCCCCCC(=O)O

T1: human neuromedin U receptor NMUR1 (human, UniProt Q9HB89 1-426)
T1 sequence (looked up): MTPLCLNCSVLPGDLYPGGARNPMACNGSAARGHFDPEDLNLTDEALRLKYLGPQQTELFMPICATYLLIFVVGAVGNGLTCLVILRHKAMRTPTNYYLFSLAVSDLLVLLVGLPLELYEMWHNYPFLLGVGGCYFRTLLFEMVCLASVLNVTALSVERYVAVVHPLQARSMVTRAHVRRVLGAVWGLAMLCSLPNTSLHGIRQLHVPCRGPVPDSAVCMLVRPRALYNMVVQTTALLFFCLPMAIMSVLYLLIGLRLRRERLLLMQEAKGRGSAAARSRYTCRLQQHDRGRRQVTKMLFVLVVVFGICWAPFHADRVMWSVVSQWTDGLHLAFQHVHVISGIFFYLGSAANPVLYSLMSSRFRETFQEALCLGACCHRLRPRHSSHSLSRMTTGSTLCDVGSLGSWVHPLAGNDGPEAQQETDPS


What was measured:
[1] = molecular target: T1, human neuromedin U receptor NMUR1; assay: cell-based or functional assay
[2] = molecular target: T2, human neuromedin U receptor NMUR2 (human, UniProt Q9GZQ4 1-415); assay: told from the calcium mobilization assay on HEK293 cells expressing the receptor; no direct binding assay
T2 construct: whole, on cells; also called neuromedin U 2 receptor; HEK-NMU2
Method: To test whether neuromedin U can be modified/derivatized to yield truncated bioactive compound(s) that may be useful as therapeutics, we synthesized a small library (25 peptides) of hNMU analogs utilizing various stabilization protocols, including: cyclization, lipidation, introduction of α,α-disubstituted and N-methylated amino acids, retro-inverso-approach, and combination of such (see Table 1). Subsequently all analogues were tested against human neuromedin U receptors (NMUR1 and NMUR2) in calcium mobilization assay (collaboration with Dr Gary Willars, University of Leicester, UK).
HEK293 cells expressing either the neuromedin U 1 receptor or neuromedin U 2 receptor (HEK-NMU1 and HEK-NMU2 respectively) were grown to approximately 90% confluence in ELISA strip plates (96-well format) pre-coated with poly-D-lysine (0.1% w/v) and loaded for 45 min at 37° C. with 2 iM fluo-4-AM in Krebs'-HEPES buffer with bovine serum albumin (KHB-BSA; composition: 10 mM HEPES; 4.2 mM NaHCO₃; 11.7 mM D-glucose; 1.18 mM MgSO₄.7H₂O; 1.18 mM KH₂PO₄; 4.69 mM KCl; 118 mM NaCl; 1.3 mM CaCl₂.2H₂O; 0.1% (w/v) BSA; pH 7.4). Monolayers were then washed and equilibrated for 5 min at 37° C. in 100 il KHB-BSA for subsequent recording of fluorescence as an index of intracellular [Ca²⁺] ([Ca²⁺]ᵢ) using a microplate reader (NOVOstar; BMG LABTECH, Aylesbury, U.K.). […]

T2 sequence (Q9GZQ4 whole entry): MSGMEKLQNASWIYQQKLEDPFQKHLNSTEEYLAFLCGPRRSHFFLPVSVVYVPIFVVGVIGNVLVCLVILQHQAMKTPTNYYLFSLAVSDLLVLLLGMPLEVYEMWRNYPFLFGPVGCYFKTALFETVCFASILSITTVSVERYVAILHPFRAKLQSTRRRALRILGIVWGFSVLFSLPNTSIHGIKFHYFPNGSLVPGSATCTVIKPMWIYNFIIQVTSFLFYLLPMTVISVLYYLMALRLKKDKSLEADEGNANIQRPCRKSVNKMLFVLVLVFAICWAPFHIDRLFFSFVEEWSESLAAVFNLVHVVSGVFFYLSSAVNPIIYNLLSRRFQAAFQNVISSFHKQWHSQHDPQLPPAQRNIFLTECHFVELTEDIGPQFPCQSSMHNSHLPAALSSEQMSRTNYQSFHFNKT

Row | Binder | NMUR1 EC50 [nM], calcium mobilization assay [1] | binding result [2]
1 | {Nic-Ida^NHPal}-[Aib]FLFRPRN-NH2 [NM4A-Nic] | 43.6 nM | 
2 | {Ida^NHPal}-[Aib]FLFRPRN-NH2 [NM4A] | 7.41 nM | 
3 | Palmitoyl-[Aib]FLFRPRN-NH2 (SMILES CCCCCCCCCCCCCCCC(=O)NC(C)(C)C(=O)N[C@@H](Cc1ccccc1)C(=O)N[C@@H](CC(C)C)C(=O)N[C@@H](Cc1ccccc1)C(=O)N[C@@H](CCCNC(=N)N)C(=O)N1CCC[C@H]1C(=O)N[C@@H](CCCNC(=N)N)C(=O)N[C@@H](CC(N)=O)C(N)=O) [NM3] | 331 nM | 
4 | Ac-FLFRPRN-NH2 [NM1] | 0.58 nM | 
5 | [Aib]FLFRPRN-NH2 (N-terminus assumed; SMILES CC(C)C[C@H](NC(=O)[C@H](Cc1ccccc1)NC(=O)C(C)(C)N)C(=O)N[C@@H](Cc1ccccc1)C(=O)N[C@@H](CCCNC(=N)N)C(=O)N1CCC[C@H]1C(=O)N[C@@H](CCCNC(=N)N)C(=O)N[C@@H](CC(N)=O)C(N)=O) [NM2] | 0.63 nM | 

Further lines, results first:

Row | NMUR1 EC50 [nM], calcium mobilization assay [1] | binding result [2] | Binder
6 | 3980 nM |  | C[Ahx]FLFR[Tic]RN[Ahx]C-NH2 (cysteine pairing not given here) [NM10]
7 | 3980 nM |  | C[Ahx]FLFR[Tic]RN[Ahx]C-NH2 (linker 1-11 via PalS‑X) [NM16]
8 | 1.51 nM | binds | Palmitoyl-[dPEG12][Aib]FLFRPRN-NH2 [NM4]
9 | 1410 nM |  | C[Ahx]FLFR[Oic]RN[Ahx]C-NH2 (cysteine pairing not given here) [NM9]
10 | 58.9 nM |  | [Aib]FLFRPRN[Aib]-NH2 (N-terminus assumed; SMILES CC(C)C[C@H](NC(=O)[C@H](Cc1ccccc1)NC(=O)C(C)(C)N)C(=O)N[C@@H](Cc1ccccc1)C(=O)N[C@@H](CCCNC(=N)N)C(=O)N1CCC[C@H]1C(=O)N[C@@H](CCCNC(=N)N)C(=O)N[C@@H](CC(N)=O)C(=O)NC(C)(C)C(N)=O) [NM5]
11 | 186 nM |  | C[Ahx]FLFRPRN[Ahx]C-NH2 (cysteine pairing not given here) [NM8]
12 | 1.12 nM |  | FRVDEEFQSPFASQSRGYFLFRPRN-NH2 [human neuromedin U]
13 | 170 nM |  | {Palmitoyl-dPEG12}-[Aib]FLFRPRN[Aib]-NH2 [NM7]
